Experimental data taken from FireProtDB (doi:10.1371/journal.ppat.1004158).

B1: Heterokaryon incompatibility protein s, Q03689 (parent)
chain: MSEPFGIVAGALNVAGLFNNCVDCFEYVQLGRPFGRDYERCQLRLDIAKARLSRWGEAVKINDDPRFHSDAPTDKSVQLAKSIVEEILLLFESAQKTSKRYELVADQQDLVVFEDKDMKPIGRALHRRLNDLVSRRQKQTSLAKKTAWALYDGKSLEKIVDQVARFVDELEKAFPIEAVCHKLAEIEIEEVEDEASLTILKDAAGGIDAAMSDAAAQKIDAIVGRNSAKDIRTEERARVQLGNVVTAAALHGGIRISDQTTNSVETVVGKGESRVLIGNEYGGKGFWDN

Variants of: B1
Conditions: Podospora anserina; pH 7.5; 25 °C; GdnHCl; optical density; structure 2KJ3; whole UniProt chain shown

| Variant | ddG of mutation (higher = less stable) [kcal/mol] | unfolding free energy [kcal/mol] |
| --- | --- | --- |
| V267A | -0.2 | 2.9 |
| G278A | 0.8 | 2.5 |
| L241A | -1 | 3.9 |
| V239A | -1 | 3.9 |
| V264A | -1 | 4 |
| E272A | -1.9 | 4.8 |
| S273A | -1.4 | 4.3 |
| D288A | -1.2 | 4.1 |
| K229A | -1.5 | 4.4 |
